Experimental data: article PMC4954732, “Sterol Biosynthesis and Azole Tolerance Is Governed by the Opposing Actions of SrbA and the CCAAT Binding Complex”

Biological target: T1, SrbA bHLHZ (Aspergillus fumigatus, UniProt Q4WIN1 161-267)
T1 sequence: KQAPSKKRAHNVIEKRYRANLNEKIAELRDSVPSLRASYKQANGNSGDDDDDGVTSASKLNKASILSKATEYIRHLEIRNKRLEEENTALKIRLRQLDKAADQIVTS
Assay: SPR; apparent Kd; Rmax 197.6, two homodimers proposed; SPR on immobilised biotinylated duplexes, 1:1 model with mass transport; buffer, salt, pH and temperature not stated (protocols of refs 19, 54)
Conditions: protein: recombinant; chain copies: 2; label: 5' biotin on strand 1; blunt

B1: SRE1+SRE2 (cyp51Ap-320-32) (dsDNA)
DNA 1: AGAATCACGCGGTCCGGATGTGTGCTGAGCCG
DNA 2: CGGCTCAGCACACATCCGGACCGCGTGATTCT
Kd: 22 nM
